According to FireProtDB (doi:10.1016/s0014-5793(99)00158-1):

B1: Barstar, P11540 (parent)
chain: MKKAVINGEQIRSISDLHQTLKKELALPEYYGENLDALWDCLTGWVEYPLVLEWRQFEQSKQLTENGAESVLQVFREAKAEGCDITIILS

Variants of: B1
Conditions: Bacillus amyloliquefaciens; pH 6.2; Thermal; DSC; Na-acetate 10 mM; NaCl 0.05 M; reversible: yes; structure 1BTA; whole UniProt chain shown

| Variant | Tm [°C] | unfolding enthalpy (calorimetric) [kcal/mol] | unfolding enthalpy (van 't Hoff) [kcal/mol] |
| --- | --- | --- | --- |
| C41A | 74.1 | 51 | 73 |
| C83A | 71.9 | 49 | 68 |
| C41A C83A | 73.6 | 73 | 71 |
